In patent US10766952B2, “Methods for reducing migraine frequency in a subject in need thereof” (Beth Israel Deaconess Medical Center, Inc., priority 2017, dated 2020):
Where a chain is given by its changes, count along the chain named. Numbers in names are those of the source.

T1: human α-CGRP (Homo sapiens, UniProt P06881)
T1 construct: 1-37 (WT); purchased; host or cells: synthetic peptide
T1 sequence (P06881 83-119 limits assumed): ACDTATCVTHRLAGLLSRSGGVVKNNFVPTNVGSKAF

T2: rat α-CGRP (Rattus norvegicus, UniProt P01256)
T2 construct: rat α (1-37); host or cells: synthetic peptide
T2 sequence (P01256 83-119 limits assumed): T1 sequence (P06881 83-119 limits assumed) with A1S, D3N, N25D, K35E

B1: M68: G1 variant: L1 R28N,T30G; L2 L56I; H2 E54K,A57N,S58D,E64D; HC-FW3 L99T,A100V (antibody, V domains shown)
VH: EVQLVESGGGLVQPGGSLRLSCAASGFTFSNYWISWVRQAPGKGLEWVAEIRSKSDNDATHYADAVKGRFTISRDNAKNSLYLQMNSLRAEDTAVYYCTVYFDYGLAIQNYWGQGTLVTVSS
VL: EIVLTQSPATLSLSPGERATLSCKASKNVGTYVSWYQQKPGQAPRLLIYGASNRYIGIPARFSGSGSGTDFTLTISSLEPEDFAVYYCSQSYNYPYTFGQGTKLEIK
B2: M71: G1 variant: L1 R28N,T30G; L2 L56I; H2 E54K,A57Y; HC-FW3 L99T,A100V (antibody, V domains shown)
VH: B1 VH with N57Y, D58S, D64E
VL: B1 VL
B3: M82: G1 variant: L1 R28N,T30V; L2 A51H,L56T; H2 A57N; HC-FW3 L991 (printed),A100V (antibody, V domains shown)
VH: B1 VH with K54E, D58S, D64E
VL: B1 VL with G30V, A51H, I56T
B4: M76: G1 variant: L1 R28N,T30S; L2 G50A,L56T; H2 A57G; HC-FW3 L99T,A100V (antibody, V domains shown)
VH: B1 VH with K54E, N57G, D58S, D64E
VL: B1 VL with G30S, G50A, I56T
B5: M80: G1 variant: L1 R28N,T30S; L2 L56I; H2 E54K,A57N,S58V; HC-FW3 L99T,A100V (antibody, V domains shown)
VH: B1 VH with D58V, D64E
VL: B1 VL with G30S
B6: M83: G1 variant: L1 R28N,T30V; L2 A51H,L56T; H2 E54K,A57N,S58M,H61F; HC-FW3 L991 (printed),A100V (antibody, V domains shown)
VH: B1 VH with D58M, H61F, D64E
VL: B1 VL with G30V, A51H, I56T
B7: M81: G1 variant: L1 R28N,T30S; L2 L56S; H2 E54K,A57N,S58E; HC-FW3 L99T,A100V (antibody, V domains shown)
VH: B1 VH with D58E, D64E
VL: B1 VL with G30S, I56S
B8: M84: G1 variant: L1 R28N,T30V; L2 A51H,L56T; H2 E54N,A57N; HC-FW3 L991 (printed),A100V (antibody, V domains shown)
VH: B1 VH with K54N, D58S, D64E
VL: B1 VL with G30V, A51H, I56T
B9: M72: G1 variant: L1 R28N,T30G; L2 L56S; H2 E54K; HC-FW3 L99T,A100V (antibody, V domains shown)
VH: B1 VH with N57A, D58S, D64E
VL: B1 VL with I56S
B10: M69: G1 variant: L1 R28N,T30G; L2 L56I; H2 E54K,A57N,S58E; HC-FW3 L99T,A100V (antibody, V domains shown)
VH: B1 VH with D58E, D64E
VL: B1 VL
B11: M78: G1 variant: L1 R28N,T30S; L2 G50A,L56T; H2 E54K,A57N,S58T; HC-FW3 L99T,A100V (antibody, V domains shown)
VH: B1 VH with D58T, D64E
VL: B1 VL with G30S, G50A, I56T
B12: M77: G1 variant: L1 R28N,T30S; L2 G50A,L56T; H2 E54K,A57D; HC-FW3 L99T,A100V (antibody, V domains shown)
VH: B1 VH with N57D, D58S, D64E
VL: B1 VL with G30S, G50A, I56T
B13: M20: G1 variant: L1 R28W; HC-FW3 L99R,A100L (antibody, V domains shown)
VH: B1 VH with K54E, N57A, D58S, D64E, T99R, V100L
VL: B1 VL with N28W, G30T, I56L
B14: M70: G1 variant: L1 R28N,T30G; L2 L56I; H2 E54K,A57S; HC-FW3 L99T,A100V (antibody, V domains shown)
VH: B1 VH with N57S, D58S, D64E
VL: B1 VL
B15: M21: G1 variant: L1 R28W; HC-FW3 L99S (antibody, V domains shown)
VH: B1 VH with K54E, N57A, D58S, D64E, T99S, V100A
VL: B1 VL with N28W, G30T, I56L
B16: M75: G1 variant: L1 R28N,T30G; L2 L56S; H2 E54K,A57V; HC-FW3 L99T,A100V (antibody, V domains shown)
VH: B1 VH with N57V, D58S, D64E
VL: B1 VL with I56S
B17: M73: G1 variant: L1 R28N,T30G; L2 L56S; H2 E54K,A57N,S58Y,E64D; HC-FW3 L99T,A100V (antibody, V domains shown)
VH: B1 VH with D58Y
VL: B1 VL with I56S
B18: M79: G1 variant: L1 R28N,T30S; L2 G50A,L56T; H2 E54K,A57P; HC-FW3 L99T,A100V (antibody, V domains shown)
VH: B1 VH with N57P, D58S, D64E
VL: B1 VL with G30S, G50A, I56T
B19: M74: G1 variant: L1 R28N,T30G; L2 L56S; H2 E54K,A57S; HC-FW3 L99T,A100V (antibody, V domains shown)
VH: B1 VH with N57S, D58S, D64E
VL: B1 VL with I56S

molecular target: T1, human α-CGRP; experiment: Biacore affinity of antibody G1 Fab and variants to human α-CGRP; format: binding; settings: 37° C., Fab, screening mode unless underlined
Experimental: (§1) Biacore assay for affinity determination. […] All Biacore assays were conducted in HBS-EP running buffer (10 mM HEPES pH 7.4, 150 mM NaCl, 3 mM EDTA, 0.005% v/v polysorbate P20). CGRP surfaces were prepared by diluting the N-biotinylated CGRP to a concentration of less than 0.001 mg/mL into HBS-EP buffer and injecting it across the SA sensor chip using variable contact times. Low capacity surfaces, corresponding to capture levels <50 response units (RU) were used for high-resolution kinetic studies, whereas high capacity surfaces (about 800 RU of captured CGRP) were used for concentration studies, screening, and solution affinity determinations. […] Samples were typically injected for lminute at 100 μL/min and dissociation times of at least 10 minutes were allowed. After each binding cycle, surfaces were regenerated with 25 mM NaOH in 25% v/v ethanol, which was tolerated over hundreds of cycles. An entire titration series (typically generated in duplicate) was fit globally to a 1:1 Langmuir binding model using the BlAevaluation program. This returned a unique pair of association and dissociation kinetic rate constants (respectively, kon and koff) for each binding interaction, whose ratio gave the equilibrium dissociation constant (KD=koff/[…]).
(§2) High-resolution analysis of binding interactions with extremely slow offrates. […] The protocol described above was used with the following modifications. The association rate constant (kon) was determined by injecting a 2-fold titration series (in duplicate) spanning 550 nM-1 nM for 30 seconds at 100 μL/min and allowing only a 30 second dissociation phase. The dissociation rate constant (koff) was determined by injecting three concentrations (high, medium, and low) of the same titration series in duplicate for 30 seconds and allowing a 2-hour dissociation phase. The affinity (KD) of each interaction was obtained by combining the kon and koff values obtained in both types of experiments, as shown in Table 4.
(§3) The binding affinities of Fab fragments were determined by Biacore by flowing them across CGRPs on a SA chip.

| α-human koff [s⁻¹] | Molecule |
| --- | --- |
| 0.000428 | B1 |
| 0.00128 | B2 |
| 0.000877 | B3 |
| 0.000364 | B4 |
| 0.00209 | B5 |
| 0.000933 | B6 |
| 0.00049 | B7 |
| 0.00108 | B8 |
| 0.0004 | B9 |
| 0.000733 | B10 |
| 0.00131 | B11 |
| 0.000477 | B12 |
| 0.000136 | B13 |
| 0.000559 | B14 |
| 0.000142 | B15 |
| 0.00116 | B16 |
| 0.000255 | B17 |
| 0.00129 | B18 |
| 0.000597 | B19 |

molecular target: T2, rat α-CGRP; experiment: Biacore affinity of antibody G1 Fab and variants to rat α-CGRP; format: binding; settings: 37° C., Fab, screening mode unless underlined
Experimental: as §1, §2, §3

| α-rat koff | Molecule |
| --- | --- |
| 0.00676 s⁻¹ | B1 |
| 0.00212 s⁻¹ | B2 |
| 0.00699 s⁻¹ | B3 |
| 0.00116 s⁻¹ | B4 |
| 0.0993 s⁻¹ | B5 |
| No binding | B6 |
| 0.00429 s⁻¹ | B7 |
| 0.0176 s⁻¹ | B8 |
| 0.00395 s⁻¹ | B9 |
| 0.00181 s⁻¹ | B10 |
| 0.167 s⁻¹ | B11 |
| 0.0143 s⁻¹ | B12 |
| 0.00144 s⁻¹ | B13 |
| 0.00607 s⁻¹ | B14 |
| 0.000695 s⁻¹ | B15 |
| 0.0187 s⁻¹ | B16 |
| 0.003 s⁻¹ | B17 |
| 0.19 s⁻¹ | B18 |
| 0.00603 s⁻¹ | B19 |
